Data taken from patent publication US20200148778A1.
Read-outs that look alike come from different tables or passages of the source.

Key:
[1] = target: Fc-tagged human CD40 (h-CD40-Fc) recombinant protein (human) (UniProt P25942); assay: hCD40/hCD40L blocking ELISA, CD40L as competitor
[2] = target: Fc-tagged human CD40 (h-CD40-Fc) recombinant protein (human) (UniProt P25942); assay: hCD40/hCD40L blocking ELISA, CD40L as competitor; remark: listed apart in the source
[3] = target: human CD40 on HEK293 cells stably transfected with the human CD40 gene (HEK-Blue CD40L cells) (human) (UniProt P25942); assay: HEK293-CD40 cells binding; method not described
human CD40 on HEK293 cells stably transfected with the human CD40 gene (HEK-Blue CD40L cells) (human), sequence (P25942 21-277): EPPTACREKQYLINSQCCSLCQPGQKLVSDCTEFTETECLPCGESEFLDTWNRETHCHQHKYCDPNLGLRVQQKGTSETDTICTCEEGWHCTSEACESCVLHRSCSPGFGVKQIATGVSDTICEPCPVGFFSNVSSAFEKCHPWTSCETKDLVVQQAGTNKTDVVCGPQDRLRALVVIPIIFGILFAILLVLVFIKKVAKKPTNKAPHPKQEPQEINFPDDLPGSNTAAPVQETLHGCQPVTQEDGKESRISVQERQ

[4] = target: His-tagged human CD40 (h-CD40-his) recombinant protein (human) (UniProt P25942); assay: Biacore X100, antibody captured by anti-human antibody on CM5 chip, CD40 antigen as analyte, 1:1 model
His-tagged human CD40 (h-CD40-his) recombinant protein (human), sequence (P25942 21-193 limits assumed): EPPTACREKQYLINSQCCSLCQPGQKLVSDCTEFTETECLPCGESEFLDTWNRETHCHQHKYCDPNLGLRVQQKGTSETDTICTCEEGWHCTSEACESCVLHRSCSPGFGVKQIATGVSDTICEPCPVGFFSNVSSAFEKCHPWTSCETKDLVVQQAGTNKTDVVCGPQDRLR

[5] = target: His-tagged human CD40 (h-CD40-his) recombinant protein (human) (UniProt P25942); assay: ELISA, human CD40-his coated
[6] = target: His-tagged human CD40 (h-CD40-his) recombinant protein (human) (UniProt P25942); assay: ELISA, human CD40-his coated; remark: listed apart in the source
[7] = target: His-tagged human CD40 (h-CD40-his) recombinant protein (human) (UniProt P25942); assay: Biacore X100, antibody captured by anti-human antibody on CM5 chip, CD40 antigen as analyte, 1:1 model; remark: listed apart in the source
[8] = target: His-tagged rhesus CD40 (rhesus-CD40-his) recombinant protein (rhesus) (UniProt F6SNI1); assay: ELISA, rhesus CD40-his coated
His-tagged rhesus CD40 (rhesus-CD40-his) recombinant protein (rhesus), sequence (F6SNI1 entry or part of it): as the sequence (P25942 21-193 limits assumed) above, with G43S, H56R, W89L, T92M, A95S, L101P, S106L, H142R, L172Q counted along it

[9] = target: human CD40 on HEK293 cells stably transfected with the human CD40 gene (HEK-Blue CD40L cells) (human) (UniProt P25942); assay: HEK293-CD40 cells binding; method not described; remark: listed apart in the source

Fc-tagged human CD40 (h-CD40-Fc) recombinant protein (human), sequence (P25942 21-193 limits assumed): as the sequence (P25942 21-193 limits assumed) above

IC50 [1]: 0.647 µg/mL
IC50 [2]: 0.723 µg/mL
EC50 [3]: 0.397 µg/mL
Kd [4]: 65.9 nM
EC50 [5]: 0.00129 µg/mL
EC50 [6]: 0.00329 µg/mL
Kd [7]: 166 nM
EC50 [8]: 0.00124 µg/mL
EC50 [9]: 1.36 µg/mL
B1: Alligator reference (hIgG1) (antibody, INN chains, looked up, V domains shown)
VH: EVQLLESGGGLVQPGGSLRLSCAASGFTFSTYGMHWVRQAPGKGLEWLSYISGGSSYIFYADSVRGRFTISRDNSENALYLQMNSLRAEDTAVYYCARILRGGSGMDLWGQGTLVTVSS
VL: QSVLTQPPSASGTPGQRVTISCTGSSSNIGAGYNVYWYQQLPGTAPKLLIYGNINRPSGVPDRFSGSKSGTSASLAISGLRSEDEADYYCAAWDKSISGLVFGGGTKLTVL
